Results published in FireProtDB (doi:10.1016/0022-2836(92)90387-y).

B1: Ribonuclease, P00648 (parent)
chain: MMKMEGIALKKRLSWISVCLLVLVSAAGMLFSTAAKTETSSHKAHTEAQVINTFDGVADYLQTYHKLPDNYITKSEAQALGWVASKGNLADVAPGKSIGGDIFSNREGKLPGKSGRTWREADINYTSGFRNSDRILYSSDWLIYKTTDHYQTFTKIR

Variants of: B1
Details: Bacillus amyloliquefaciens; pH 6.3; 25 °C; Urea; Fluorescence; MES 50 mM; reversible: yes; structure 1BNI; whole UniProt chain shown

In the case of S104A, the “ddG of mutation (higher = less stable)” value is reported as -0.628 kJ/mol and the unfolding free energy is reported as 37.6 kJ/mol.

With H149A the “ddG of mutation (higher = less stable)” value was 1 kJ/mol and the unfolding free energy was 35.9 kJ/mol.

With D101N the “ddG of mutation (higher = less stable)” value was 11.2 kJ/mol and the unfolding free energy was 34.1 kJ/mol.

In the case of Y150F, the “ddG of mutation (higher = less stable)” value is reported as 0 kJ/mol and the unfolding free energy is reported as 36.9 kJ/mol.

In the case of R106A, the “ddG of mutation (higher = less stable)” value is reported as -2.68 kJ/mol and the unfolding free energy is reported as 39.6 kJ/mol.

With Q151A the “ddG of mutation (higher = less stable)” value was 0.669 kJ/mol and the unfolding free energy was 36.3 kJ/mol.

With E120A the “ddG of mutation (higher = less stable)” value was 9.62 kJ/mol and the unfolding free energy was 27.3 kJ/mol.

In the case of K74A, the “ddG of mutation (higher = less stable)” value is reported as -1.51 kJ/mol and the unfolding free energy is reported as 38.5 kJ/mol.

With N105D the “ddG of mutation (higher = less stable)” value was -1.67 kJ/mol and the unfolding free energy was 38.6 kJ/mol.
